Data taken from US20240058465A1 (SUTRO BIOPHARMA, published 2024).
Where two headings read alike, the source gives them in different places.

Key:
[1] = biological target: T1, human ROR1 extracellular domain (human, UniProt Q01973 30-406); test: SPR (Biacore T200), IgG captured by anti-human Fc, ROR1 ECD as analyte, 1:1 Langmuir fit
T1 construct: Bought recombinant protein (Acro Biosystems); also called ROR1 ECD; hROR1
Protocol: The data was fit with the Biacore™ T200 Evaluation software, using a 1-1 Langmuir binding model. KD (affinity, nM) was determined as a ratio of the kinetic rate constants calculated from the fits of the association and dissociation phases.

[2] = biological target: T2, human ROR1 Immunoglobulin domain (Ig, residues 39-151) with C-terminal HIS6 tag (human, UniProt Q01973 39-151); test: SPR kinetic screen (Biacore), antibody captured as ligand (Fc=2-1), sample printed as ROR1 Ig, 25 C, 1:1 binding model
T2 construct: Made in HEK293 cells and purified (Acro Biosystems)

[3] = biological target: ROR1 (recombinant protein coated on the ELISA plate, Example 11) (UniProt Q01973 30-403, limits assumed); test: ELISA: ROR1 coated on the plate, antibody titrated 3-fold from 5 ug/mL, HRP anti-human Fc, chemiluminescence (ELISA RLU)
From the text: The anti-ROR1 lead antibodies were discovered from a Fab ribosome display library that contained CDR H1, H2, and H3 diversity and utilized a constant LC (trastuzumab LC). In this example, the HCs of the lead antibodies were co-expressed with trastuzumab LC or different LCs derived from anti-CD3 antibodies: hOKT3-LC1, hSP34-LC3, hUCHT1-LC3 to determine if the anti-ROR1 HC leads would retain binding to ROR1 when assembled with anti-CD3 LCs. […] The antibodies were then purified and tested for ROR1 binding by ELISA. The ELISA assay was carried out as follows. Briefly, 2 μg/mL of ROR1 was coated to a 384-well polystyrene plate for 1 hr at 30° C. in 0.1 M bicarbonate pH8.9 buffer before it was washed and blocked with 2% BSA in PBST (PBS, 0.1% Tween20) for 1 hr. Antibody variants were diluted to 5 μg/mL and further serially diluted 3-fold before 30 μL was applied to the ELISA plates for binding ([…] Antibody binding was detected via HRP-conjugated anti-human Fc antibodies (Jackson Immunoresearch) and detection with SuperSignal ELISA Pico Chemiluminescent Substrate (Pierce).

[4] = biological target: T2, human ROR1 Immunoglobulin domain (Ig, …); test: SPR kinetic screen (Biacore), antibody captured as ligand (Fc=2-1), sample printed as ROR1 Ig, 25 C, 1:1 binding model; remark: listed apart in the source
[5] = biological target: T2, human ROR1 Immunoglobulin domain (Ig, …); test: SPR kinetic screen (Biacore), antibody captured as ligand (Fc=4-1), sample printed as ROR1 Ig, 25 C, 1:1 binding model; fit to a flat sensorgram
[6] = biological target: T3, receptor tyrosine kinase orphan receptor 1 (ROR1) on Ntera-2 cells (human, UniProt Q01973 30-937); test: cell-based or functional assay
[7] = biological target: T3, receptor tyrosine kinase orphan …; test: cell-based or functional assay; remark: listed apart in the source
[8] = biological target: T3, receptor tyrosine kinase orphan …; test: cell-based or functional assay; remark: listed apart in the source
human ROR1 (hROR1) [9] = biological target: T4, human ROR1 (hROR1) (human, UniProt Q01973 30-937); test: cell-based or functional assay
[10] = biological target: T5, human ROR1 Frizzled domain (hROR1-Fz) (human, UniProt Q01973 165-305); test: SPR Biacore, IgG on anti-Fc, ROR1-Fz analyte
T5 construct: Acro Biosystems, made in HEK293
Outline: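 Test antibodies captured on an anti-Fc surface (CM5 chip), then analyte bound for 180 s with 600 s dissociation at 25° C in HBS-EP+ buffer at 50 μL/min. Human ROR1 ECD, Frizzled or Kringle domain used as analyte; regeneration with 10 mM glycine pH 2.0.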

[11] = biological target: T6, human ROR1 frizzled domain (hROR1-Fz) (human, UniProt Q01973 165-305); test: SPR kinetic screen (Biacore), antibody captured as ligand (Fc=3-1), sample ROR1 Fz, 25 C, 1:1 binding model; fit to a low response of at most about 2 on the response axis; Table 7 lists this pair as 'Not detected'
T6 construct: From Acro Biosystems

human ROR1 (hROR1) [12] = biological target: T4, human ROR1 (hROR1); test: flow cytometry, HCT116-hROR1 cells

B1: 1987-C05 HC with Trastuzumab LC (antibody, V domains shown)
VH: EVQLVESGGGLVQPGGSLRLSCAASGFNISDYDIHWVRQAPGKGLEWVGGIDPDDGSTDYADSVKGRFTISADTSKNTAYLQMNSLRAEDTAVYYCARDYGVFDYWGQGTLVTVSS
VL: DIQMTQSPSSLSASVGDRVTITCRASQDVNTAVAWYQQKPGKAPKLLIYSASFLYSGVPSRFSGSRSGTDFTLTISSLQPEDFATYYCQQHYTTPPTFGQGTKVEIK
notes: also called 1987-C05 HC w/trstmb LC (parent IgG); SRP1987-C05
Q: For B1, which Kd [1] is on record?
A: 0.277 nM

Q: And the koff [1]?
A: 0.000673 s⁻¹

Q: What about the kon [1] of the same binder?
A: 2.43e+06 M⁻¹ s⁻¹

Q: What about the Kd [2] of the same binder?
A: 0.00859 nM

Q: What about the koff [2] of the same binder?
A: 0.000705 s⁻¹

Q: What about the kon [2] of the same binder?
A: 8.2e+07 M⁻¹ s⁻¹

Q: What about the “EC50 (read off the curve)” value [3] of the same binder?
A: ~0.04 µg/mL

B2: 1987-C05 HC co-expressed with hUCHT1-LC3 light chain (antibody, V domains shown)
VH: EVQLVESGGGLVQPGGSLRLSCAASGFNISDYDIHWVRQAPGKGLEWVGGIDPDDGSTDYADSVKGRFTISADTSKNTAYLQMNSLRAEDTAVYYCARDYGVFDYWGQGTLVTVSS
VL: DIQMTQSPSTLSASVGDRVTITCRASQDIRNYLNWYQQKPGKAPKLLIYYTSRLHSGVPSRFSGSGSGTEYTLTISSLQPDDFATYYCQQGNTLPWTFGGGTKVEIK
notes: Only variable domains are tied to this pairing; also called 1987-C05 w/hUCHT1 LC3; 1987-C05 variant
Q: What does the source list for B2?
A: Kd [4]: 2.6 nM; koff [4]: 0.133 s⁻¹; kon [4]: 5.11e+07 M⁻¹ s⁻¹; EC50 (read off the curve) [3]: ~0.03 µg/mL

B3: 1987-C05 HC co-expressed with hSP34-LC3 light chain (antibody, V domains shown)
VH: EVQLVESGGGLVQPGGSLRLSCAASGFNISDYDIHWVRQAPGKGLEWVGGIDPDDGSTDYADSVKGRFTISADTSKNTAYLQMNSLRAEDTAVYYCARDYGVFDYWGQGTLVTVSS
VL: QTVVTQEPSLTVSPGGTVTLTCGSSTGAVTSGYYPNWFQQKPGQAPRGLIGGTKFLAPGTPARFSGSLLGGKAALTLSGVQPEDEAEYYCALWYSNRWVFGGGTQLTVTG
notes: Only variable domains are tied to this pairing; also called 1987-C05 w/hSP34 LC3; 1987-C05 variant
Q: Which Kd [5] does the source give for B3 here?
A: 34.1 nM

Q: What about the koff [5] of the same binder?
A: 0.00133 s⁻¹

Q: And the kon [5]?
A: 38900 M⁻¹ s⁻¹

B4: 1987-C05 HC with hUCHT1-LC3 light chain (antibody, V domains shown)
VH: EVQLVESGGGLVQPGGSLRLSCAASGFNISDYDIHWVRQAPGKGLEWVGGIDPDDGSTDYADSVKGRFTISADTSKNTAYLQMNSLRAEDTAVYYCARDYGVFDYWGQGTLVTVSS
VL: DIQMTQSPSTLSASVGDRVTITCRASQDIRNYLNWYQQKPGKAPKLLIYYTSRLHSGVPSRFSGSGSGTEYTLTISSLQPDDFATYYCQQGNTLPWTFGGGTKVEIK
notes: IgG with an anti-CD3 light chain; also called 1987-C05 HC w/hUCHT1 LC3
Q: What does the source list for B4?
A: Kd [1]: 1.14 nM; koff [1]: 0.000645 s⁻¹; kon [1]: 566000 M⁻¹ s⁻¹

B5: Conjugate 46 (D04-Y180/F241/F404/K42-LP3) (antibody, human IgG1, kappa)
heavy: MEVQLVESGGGLVQPGGSLRLSCAASGFNISDYDIHWVRQAPGKGLEWVGGIDPADGSTDYADSVKGRFTISADTSKNTAYLQMNSLRAEDTAVYYCARDYGVYDYWGQGTLVTVSSASTKGPSVFPLAPSSKSTSGGTAALGCLVKDYFPEPVTVSWNSGALTSGVHTFPAVLQSSGLSLSSVVTVPSSSLGTQTYICNVNHKPSNTKVDKKVEPKSCDKTHTCPPCPAPELLGGPSVLFPPKPKDTLMISRTPEVTCVVVDVSHEDPEVKFNWYVDGVEVHNAKTKPREEQYNSTYRVVSVLTVLHQDWLNGKEYKCKVSNKALPAPIEKTISKAKGQPREPQVYTLPPSREEMTKNQVSLTCLVKGFYPSDIAVEWESNGQPENNYKTTPPVLDSDGSFLYSKLTVDKSRWQQGNVFSCSVMHEALHNHYTQKSLSLSPGK
light: MDIQMTQSPSSLSASVGDRVTITCRASQDVNTAVAWYQQKPGAPKLLIYSASFLYSGVPSRFSGSRSGTDFTLTISSLQPEDFATYYCQQHYTTPPTFGQGTKVEIKRTVAAPSVFIFPPSDEQLKSGTASVVCLLNNFYPREAKVQWKVDNALQSGNSQESVTEQDSKDSTYSLSSTLTLSKADYEKHKVYACEVTHQGLSSPVTKSFNRGEC
modifications: pAMF at K42, linked to LP3; pAMF at Y180, F241 and F404 (EU), each linked to LP3
Q: With B5 as the binder, how does the “cell killing EC50, NTERA-2 cells” value [6] read?
A: 0.042 nM

Q: What about the “cell killing Span, NTERA-2 cells” value [6] of the same binder?
A: 51%

Q: And the “cell killing EC50, NTERA-2 cells” value [7]?
A: 0.045 nM

Q: What about the “Cell Killing on Ntera2 Cells, EC50, With 1 uM 2188-D04” value [8] of the same binder?
A: < 10 nM

Q: And the “Cell Killing on Ntera2 Cells, EC50, Without 2188-D04” value [8]?
A: 0.038 nM

B6: Conjugate 47 (D04-Y180/F241/F404/K42-LP4) (antibody, human IgG1, kappa)
heavy: MEVQLVESGGGLVQPGGSLRLSCAASGFNISDYDIHWVRQAPGKGLEWVGGIDPADGSTDYADSVKGRFTISADTSKNTAYLQMNSLRAEDTAVYYCARDYGVYDYWGQGTLVTVSSASTKGPSVFPLAPSSKSTSGGTAALGCLVKDYFPEPVTVSWNSGALTSGVHTFPAVLQSSGLSLSSVVTVPSSSLGTQTYICNVNHKPSNTKVDKKVEPKSCDKTHTCPPCPAPELLGGPSVLFPPKPKDTLMISRTPEVTCVVVDVSHEDPEVKFNWYVDGVEVHNAKTKPREEQYNSTYRVVSVLTVLHQDWLNGKEYKCKVSNKALPAPIEKTISKAKGQPREPQVYTLPPSREEMTKNQVSLTCLVKGFYPSDIAVEWESNGQPENNYKTTPPVLDSDGSFLYSKLTVDKSRWQQGNVFSCSVMHEALHNHYTQKSLSLSPGK
light: MDIQMTQSPSSLSASVGDRVTITCRASQDVNTAVAWYQQKPGAPKLLIYSASFLYSGVPSRFSGSRSGTDFTLTISSLQPEDFATYYCQQHYTTPPTFGQGTKVEIKRTVAAPSVFIFPPSDEQLKSGTASVVCLLNNFYPREAKVQWKVDNALQSGNSQESVTEQDSKDSTYSLSSTLTLSKADYEKHKVYACEVTHQGLSSPVTKSFNRGEC
modifications: pAMF at K42, linked to LP4; pAMF at Y180, F241 and F404 (EU), each linked to LP4
Q: Which “cell killing EC50, NTERA-2 cells” value [6] does the source give for B6 here?
A: 0.005 nM

Q: What about the “cell killing Span, NTERA-2 cells” value [6] of the same binder?
A: 96%

Q: And the “cell killing EC50, NTERA-2 cells” value [7]?
A: 0.007 nM

Q: What about the “Cell Killing on Ntera2 Cells, EC50, With 1 uM 2188-D04” value [8] of the same binder?
A: < 10 nM

Q: And the “Cell Killing on Ntera2 Cells, EC50, Without 2188-D04” value [8]?
A: 0.008 nM

B7: SRP1944-A07 (with trastuzumab LC) (antibody, IgG1, V domains shown)
VH: EVQLVESGGGLVQPGGSLRLSCAASGFNITGYYIHWVRQAPGKGLEWVGYISPNSGSTYYADSVKGRFTISADTSKNTAYLQMNSLRAEDTAVYYCARDSRRYVRPFDYWGQGTLVTVSS
VL: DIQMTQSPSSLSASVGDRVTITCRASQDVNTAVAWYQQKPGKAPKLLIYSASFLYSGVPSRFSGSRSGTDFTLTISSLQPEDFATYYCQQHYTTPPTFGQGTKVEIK
notes: Parent of SRP2194; His/FLAG-tagged IgG1, cell-free; also called Antibody 126
Q: B7 was tested. Which “Mino Nb-PBD, drug-conjugated 2° antibody Cell Killing EC50” value (human ROR1 (hROR1) [9]) did it give?
A: 0.01 nM

Q: And the Kd [10]?
A: 24.5 nM

Q: And the koff [10]?
A: 0.01 s⁻¹

Q: What about the kon [10] of the same binder?
A: 559000 M⁻¹ s⁻¹

B8: 1944-A07 HC co-expressed with hOKT3-LC1 light chain (antibody, V domains shown)
VH: EVQLVESGGGLVQPGGSLRLSCAASGFNITGYYIHWVRQAPGKGLEWVGYISPNSGSTYYADSVKGRFTISADTSKNTAYLQMNSLRAEDTAVYYCARDSRRYVRPFDYWGQGTLVTVSS
VL: DIQMTQSPSSLSASVGDRVTITCSASSSVSYMNWYQQKPGKAPKRLIYDTSKLASGVPSRFSGSGSGTEYTLTISSLQPEDFATYYCQQWSSNPFTFGQGTKLEIK
notes: Only variable domains are tied to this pairing
Q: With B8 as the binder, how does the “EC50 (read off the curve)” value [3] read?
A: ~0.05 µg/mL

Q: What about the Kd [11] of the same binder?
A: 17.9 nM

Q: And the koff [11]?
A: 0.0137 s⁻¹

Q: What about the kon [11] of the same binder?
A: 763000 M⁻¹ s⁻¹

B9: SRP2194-A05 (antibody, IgG1, V domains shown)
VH: EVQLVESGGGLVQPGGSLRLSCAASGFNIKEYHIHWVRQAPGKGLEWVGYISPNSGSTYYADSVKGRFTISADTSKNTAYLQMNSLRAEDTAVYYCARDHRRYVRPFDYWGQGTLVTVSS
VL: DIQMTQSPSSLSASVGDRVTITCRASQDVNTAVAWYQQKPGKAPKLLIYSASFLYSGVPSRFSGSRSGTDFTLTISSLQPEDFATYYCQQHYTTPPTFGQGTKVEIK
notes: His/FLAG-tagged IgG1, cell-free
Q: With B9 as the binder, how does the “Mino Nb-PBD, drug-conjugated 2° antibody Cell Killing EC50” value (human ROR1 (hROR1) [9]) read?
A: 0.002 nM

Q: What about the “Bmax (MFI)” value (human ROR1 (hROR1) [12]) of the same binder?
A: 8810 MFI

Q: What about the Kd (human ROR1 (hROR1) [12]) of the same binder?
A: 0.31 nM

Q: And the Kd [10]?
A: 1.54 nM

Q: What about the koff [10] of the same binder?
A: 0.000317 s⁻¹

Q: And the kon [10]?
A: 206000 M⁻¹ s⁻¹
